Publication PMC11187117, “Structure of the endosomal CORVET tethering complex” (Nature Communications, 2024)

What was measured:
Test in all cases: cryo-EM structure; single-particle cryo-EM of the hexameric CORVET co-expressed in yeast and purified by 3xFLAG on Vps8 and SEC; about 0.8 mg/ml; consensus map 4.6 Å, local refinements to 3.8 Å
Settings in all cases: both partners purified
Vps3 (CORVET subunit) = biological target: T1, Vps3 (CORVET subunit) (yeast, UniProt P23643 1-1011)
T1 construct: UniProt P23643 printed for its AlphaFold model; N-terminal half (with the β-propeller) was removed from the deposited model; source: yeast lysate in the Vps8-ALFA pull-downs
T1 sequence: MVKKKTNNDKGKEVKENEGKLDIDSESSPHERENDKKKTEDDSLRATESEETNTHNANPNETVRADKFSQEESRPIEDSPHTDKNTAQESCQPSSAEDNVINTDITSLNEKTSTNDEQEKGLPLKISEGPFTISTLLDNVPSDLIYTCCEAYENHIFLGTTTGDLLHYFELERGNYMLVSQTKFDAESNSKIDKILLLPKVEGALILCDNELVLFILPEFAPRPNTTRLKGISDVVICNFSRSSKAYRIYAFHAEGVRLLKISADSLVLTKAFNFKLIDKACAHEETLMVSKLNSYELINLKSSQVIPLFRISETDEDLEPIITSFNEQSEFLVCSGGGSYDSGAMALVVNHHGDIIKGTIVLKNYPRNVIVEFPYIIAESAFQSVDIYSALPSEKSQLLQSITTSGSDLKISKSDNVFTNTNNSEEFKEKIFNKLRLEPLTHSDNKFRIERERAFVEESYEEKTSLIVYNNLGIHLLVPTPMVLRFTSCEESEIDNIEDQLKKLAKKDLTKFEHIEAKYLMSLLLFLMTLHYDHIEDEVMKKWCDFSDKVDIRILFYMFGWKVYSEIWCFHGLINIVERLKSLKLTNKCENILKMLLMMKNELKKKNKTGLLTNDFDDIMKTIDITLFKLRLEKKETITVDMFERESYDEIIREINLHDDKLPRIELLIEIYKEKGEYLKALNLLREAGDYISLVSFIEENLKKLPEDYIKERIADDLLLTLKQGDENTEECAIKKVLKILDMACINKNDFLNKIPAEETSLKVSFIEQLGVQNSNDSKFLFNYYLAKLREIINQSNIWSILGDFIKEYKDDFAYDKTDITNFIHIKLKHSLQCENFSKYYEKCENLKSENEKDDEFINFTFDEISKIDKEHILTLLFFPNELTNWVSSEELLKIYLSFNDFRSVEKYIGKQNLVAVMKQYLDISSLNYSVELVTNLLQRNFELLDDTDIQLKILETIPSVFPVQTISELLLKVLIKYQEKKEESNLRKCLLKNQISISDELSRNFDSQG

[1] = biological target: T2, Vps8 with 3xFLAG tag (CORVET subunit) (yeast, UniProt P39702 1-1274)
T2 construct: UniProt P39702 printed for its AlphaFold model
T2 sequence: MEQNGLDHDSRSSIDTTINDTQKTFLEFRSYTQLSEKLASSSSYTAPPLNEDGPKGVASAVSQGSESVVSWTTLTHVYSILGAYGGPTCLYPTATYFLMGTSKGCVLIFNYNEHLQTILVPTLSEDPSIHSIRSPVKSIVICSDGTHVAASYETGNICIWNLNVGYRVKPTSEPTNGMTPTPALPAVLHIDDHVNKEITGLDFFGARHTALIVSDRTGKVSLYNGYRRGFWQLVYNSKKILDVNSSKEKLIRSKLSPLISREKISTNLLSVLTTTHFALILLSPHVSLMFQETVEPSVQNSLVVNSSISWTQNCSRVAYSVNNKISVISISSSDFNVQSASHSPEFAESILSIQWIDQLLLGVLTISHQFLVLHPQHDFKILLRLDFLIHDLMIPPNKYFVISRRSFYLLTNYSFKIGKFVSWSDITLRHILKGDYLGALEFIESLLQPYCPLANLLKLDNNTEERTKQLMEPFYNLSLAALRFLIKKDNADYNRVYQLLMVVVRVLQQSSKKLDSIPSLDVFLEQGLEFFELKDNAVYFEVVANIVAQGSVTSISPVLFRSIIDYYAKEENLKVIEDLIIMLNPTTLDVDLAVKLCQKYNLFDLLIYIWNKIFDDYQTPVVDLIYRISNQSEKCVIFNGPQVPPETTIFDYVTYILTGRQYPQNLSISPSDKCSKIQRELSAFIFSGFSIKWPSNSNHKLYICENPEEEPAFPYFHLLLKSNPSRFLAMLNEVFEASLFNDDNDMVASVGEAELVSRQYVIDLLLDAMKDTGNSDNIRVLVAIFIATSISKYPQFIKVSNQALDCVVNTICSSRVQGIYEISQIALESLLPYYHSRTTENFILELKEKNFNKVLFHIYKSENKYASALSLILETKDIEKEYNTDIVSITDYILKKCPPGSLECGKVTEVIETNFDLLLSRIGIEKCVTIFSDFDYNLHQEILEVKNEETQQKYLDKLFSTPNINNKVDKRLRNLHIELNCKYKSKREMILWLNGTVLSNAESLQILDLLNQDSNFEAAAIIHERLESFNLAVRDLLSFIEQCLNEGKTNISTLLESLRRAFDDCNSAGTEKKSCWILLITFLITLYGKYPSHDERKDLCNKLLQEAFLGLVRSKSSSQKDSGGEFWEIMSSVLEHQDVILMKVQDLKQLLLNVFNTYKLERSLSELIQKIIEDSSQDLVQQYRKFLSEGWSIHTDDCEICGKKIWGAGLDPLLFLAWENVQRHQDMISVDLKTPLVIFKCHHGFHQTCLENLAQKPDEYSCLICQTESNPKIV

[2] = biological target: T3, Vps11 (CORVET and HOPS core subunit) (yeast, UniProt P12868 1-1029)
T3 construct: Vps11, yeast, core subunit shared by CORVET and HOPS
T3 sequence: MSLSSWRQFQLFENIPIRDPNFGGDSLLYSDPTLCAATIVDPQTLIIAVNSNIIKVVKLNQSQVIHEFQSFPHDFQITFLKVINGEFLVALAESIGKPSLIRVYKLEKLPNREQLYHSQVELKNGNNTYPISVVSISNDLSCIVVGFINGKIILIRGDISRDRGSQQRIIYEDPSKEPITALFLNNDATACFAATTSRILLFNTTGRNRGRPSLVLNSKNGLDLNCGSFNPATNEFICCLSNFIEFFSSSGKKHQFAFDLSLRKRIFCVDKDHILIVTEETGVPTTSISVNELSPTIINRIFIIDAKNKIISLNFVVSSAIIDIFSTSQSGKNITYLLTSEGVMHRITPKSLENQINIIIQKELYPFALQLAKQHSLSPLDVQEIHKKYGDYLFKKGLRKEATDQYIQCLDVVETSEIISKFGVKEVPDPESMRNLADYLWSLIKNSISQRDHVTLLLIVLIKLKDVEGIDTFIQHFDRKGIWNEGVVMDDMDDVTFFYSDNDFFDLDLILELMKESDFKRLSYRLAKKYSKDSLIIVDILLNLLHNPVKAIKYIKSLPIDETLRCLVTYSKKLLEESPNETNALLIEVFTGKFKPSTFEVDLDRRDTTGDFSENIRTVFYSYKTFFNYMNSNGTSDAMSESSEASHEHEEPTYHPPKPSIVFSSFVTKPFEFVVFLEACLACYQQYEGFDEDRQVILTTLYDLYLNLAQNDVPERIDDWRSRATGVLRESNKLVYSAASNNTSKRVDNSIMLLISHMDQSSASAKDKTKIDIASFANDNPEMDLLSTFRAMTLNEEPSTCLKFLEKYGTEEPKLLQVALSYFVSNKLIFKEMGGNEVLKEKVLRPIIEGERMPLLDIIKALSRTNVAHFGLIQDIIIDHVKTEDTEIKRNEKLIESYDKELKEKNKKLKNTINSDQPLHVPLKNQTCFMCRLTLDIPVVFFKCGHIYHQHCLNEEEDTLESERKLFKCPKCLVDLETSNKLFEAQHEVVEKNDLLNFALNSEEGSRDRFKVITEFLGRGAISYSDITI

Measured: binding result

B1: Vps18 (CORVET and HOPS core subunit) (natural protein, yeast)
chain: MIKTRIEEVQLQFLTGNTELTHLKVSNDQLIVTTQRTIYRINLQDPAIVNHFDCPLSKELETIMNVHVSPMGSVILIRTNFGRYMLLKDGEFTQLNKIKNLDLSSLHWINETTFLMGIKKTPKLYRVELTGKDITTKLWYENKKLSGGIDGIAYWEGSLLLTIKDNILYWRDVTNMKFPLVLPDESEQFERLKHHAIKKFDSYNGLFAWVTSNGIVFGDLKEKQMEKDPASNNFGKFLSSSKVLLNFELPDYQNDKDHLIKDIVLTAFHILLLRKNTVTMVSQLNNDVVFHETIPRHQLTGSNTDSNEKFLGLVRDSVKETFWCFSNINVFEIIIENEPNSVWNLLVRDNKFDKALSLKGLTVREIESVKLSKAMYLFHTAKDFHSAAQTLGSMKDLSHFGEIALNFLQIKDYNDLNVILIKQLDNVPWKSTQVVLSSWIIWNFMKQLNDIELKINTTKPASTDEDNLLNWNLNLKEKSNELTKFLESHLEKLDNETVYQIMSKQNRQNELLIFASLINDMKFLLSFWIDQGNWYESLKILLTINNHDLVYKYSLILLLNSPEATVSTWMKIKDLDPNKLIPTILKFFTNWQNNSKLITNISEYPENYSLTYLKWCVREVPKMCNPIVYNSILYMMITDPRNDMILENDIIKFMKSNENKYDLNFQLRLSLKFKKTKTSIFLLTRLNLFEDAIDLALKNNLIDDCKVIVNDEILIEDYKLRKRLWLKIAKHLLLSMKDIDIKQLIRTILNDSNEILTIKDLLPFFNEYTTIANLKEELIKFLENHNMKMNEISEDIINSKNLKVEINTEISKFNEIYRILEPGKSCDECGKFLQIKKFIVFPCGHCFHWNCIIRVILNSNDYNLRQKTENFLKAKSKHNLNDLENIIVEKCGLCSDININKIDQPISIDETELAKWNE
notes: Vps18, yeast, core subunit shared by CORVET and HOPS
binds: all assays above
